# Data reported in patent publication US20260308269 (published 2026).
# T1: human TfR apical domain (human)
# T1 chain: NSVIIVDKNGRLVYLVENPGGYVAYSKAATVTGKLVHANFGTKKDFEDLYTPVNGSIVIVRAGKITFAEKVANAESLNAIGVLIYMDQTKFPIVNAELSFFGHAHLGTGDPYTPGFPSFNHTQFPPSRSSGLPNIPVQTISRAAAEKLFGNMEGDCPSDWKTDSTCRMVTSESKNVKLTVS
# Target: T1, human TfR apical domain
# Test: SPR
row,Binder,Kd
1,35.d1.12 (protein) ASTKGPSVFPLAPSSKSTSGGTAALGCLVKDYFPEPVTVSWNSGALTSGVHTFPAVLQSSGLYSLSSVVTVPSSSLGTQTYICNVNHKPSNTKVDKKVEPKSCDKTHTCPPCPAPELLGGPSVFLFPPKPKDTLMISRTPEVTCVVVDVSHEDPEVKFNWYVDGVEVHNAKTKPREEQYNSTYRVVSVLTVLHQDWLNGKEYKCKVSNKALPAPIEKTISKAKGQPREPQVYTLPPSRDELTKNQVSLTCLVKGFYPSDIAVEWESFGTEWSNYKTTPPVLDSDGSFFLYSKLTVSKSEWQQGFVFSCSVMHEALHNHYTQKSLSLSPELQLEESCAEAQDGELDGLWTT,1.6 µM
2,35.d1.8 (protein) ASTKGPSVFPLAPSSKSTSGGTAALGCLVKDYFPEPVTVSWNSGALTSGVHTFPAVLQSSGLYSLSSVVTVPSSSLGTQTYICNVNHKPSNTKVDKKVEPKSCDKTHTCPPCPAPELLGGPSVFLFPPKPKDTLMISRTPEVTCVVVDVSHEDPEVKFNWYVDGVEVHNAKTKPREEQYNSTYRVVSVLTVLHQDWLNGKEYKCKVSNKALPAPIEKTISKAKGQPREPQVYTLPPSRDELTKNQVSLTCLVKGFYPSDIAVEWESYGNEWSNYKTTPPVLDSDGSFFLYSKLTVTKSEWQQGFVFSCSVMHEALHNHYTQKSLSLSPELQLEESCAEAQDGELDGLWTT,13.2 µM
3,35.d1.18 (protein) ASTKGPSVFPLAPSSKSTSGGTAALGCLVKDYFPEPVTVSWNSGALTSGVHTFPAVLQSSGLYSLSSVVTVPSSSLGTQTYICNVNHKPSNTKVDKKVEPKSCDKTHTCPPCPAPELLGGPSVFLFPPKPKDTLMISRTPEVTCVVVDVSHEDPEVKFNWYVDGVEVHNAKTKPREEQYNSTYRVVSVLTVLHQDWLNGKEYKCKVSNKALPAPIEKTISKAKGQPREPQVYTLPPSRDELTKNQVSLTCLVKGFYPSDIAVEWESFGTEWSNYKTTPPVLDSDGSFFLYSKLTVSKSEWQQGYVFSCSVMHEALHNHYTQKSLSLSPELQLEESCAEAQDGELDGLWTT,4.4 µM
4,35.d1.20 (protein) ASTKGPSVFPLAPSSKSTSGGTAALGCLVKDYFPEPVTVSWNSGALTSGVHTFPAVLQSSGLYSLSSVVTVPSSSLGTQTYICNVNHKPSNTKVDKKVEPKSCDKTHTCPPCPAPELLGGPSVFLFPPKPKDTLMISRTPEVTCVVVDVSHEDPEVKFNWYVDGVEVHNAKTKPREEQYNSTYRVVSVLTVLHQDWLNGKEYKCKVSNKALPAPIEKTISKAKGQPREPQVYTLPPSRDELTKNQVSLTCLVKGFYPSDIAVEWESYGTEWVNYKTTPPVLDSDGSFFLYSKLTVSKSEWQQGFVFSCSVMHEALHNHYTQKSLSLSPELQLEESCAEAQDGELDGLWTT,3.6 µM
5,CH3C.1.35 (protein) ASTKGPSVFPLAPSSKSTSGGTAALGCLVKDYFPEPVTVSWNSGALTSGVHTFPAVLQSSGLYSLSSVVTVPSSSLGTQTYICNVNHKPSNTKVDKKVEPKSCDKTHTCPPCPAPELLGGPSVFLFPPKPKDTLMISRTPEVTCVVVDVSHEDPEVKFNWYVDGVEVHNAKTKPREEQYNSTYRVVSVLTVLHQDWLNGKEYKCKVSNKALPAPIEKTISKAKGQPREPQVYTLPPSRDELTKNQVSLTCLVKGFYPSDIAVEWESYGTEWSSYKTTPPVLDSDGSFFLYSKLTVTKSEWQQGFVFSCSVMHEALHNHYTQKSLSLSPELQLEESCAEAQDGELDGLWTT,0.61 µM
6,35.d1.13 (protein) ASTKGPSVFPLAPSSKSTSGGTAALGCLVKDYFPEPVTVSWNSGALTSGVHTFPAVLQSSGLYSLSSVVTVPSSSLGTQTYICNVNHKPSNTKVDKKVEPKSCDKTHTCPPCPAPELLGGPSVFLFPPKPKDTLMISRTPEVTCVVVDVSHEDPEVKFNWYVDGVEVHNAKTKPREEQYNSTYRVVSVLTVLHQDWLNGKEYKCKVSNKALPAPIEKTISKAKGQPREPQVYTLPPSRDELTKNQVSLTCLVKGFYPSDIAVEWESYGNEWSNYKTTPPVLDSDGSFFLYSKLTVSKSEWQQGFVFSCSVMHEALHNHYTQKSLSLSPELQLEESCAEAQDGELDGLWTT,18.5 µM
7,35.d1.17 (protein) ASTKGPSVFPLAPSSKSTSGGTAALGCLVKDYFPEPVTVSWNSGALTSGVHTFPAVLQSSGLYSLSSVVTVPSSSLGTQTYICNVNHKPSNTKVDKKVEPKSCDKTHTCPPCPAPELLGGPSVFLFPPKPKDTLMISRTPEVTCVVVDVSHEDPEVKFNWYVDGVEVHNAKTKPREEQYNSTYRVVSVLTVLHQDWLNGKEYKCKVSNKALPAPIEKTISKAKGQPREPQVYTLPPSRDELTKNQVSLTCLVKGFYPSDIAVEWESFGTEWTNYKTTPPVLDSDGSFFLYSKLTVSKSEWQQGFVFSCSVMHEALHNHYTQKSLSLSPELQLEESCAEAQDGELDGLWTT,18.8 µM
8,35.d1.11 (protein) ASTKGPSVFPLAPSSKSTSGGTAALGCLVKDYFPEPVTVSWNSGALTSGVHTFPAVLQSSGLYSLSSVVTVPSSSLGTQTYICNVNHKPSNTKVDKKVEPKSCDKTHTCPPCPAPELLGGPSVFLFPPKPKDTLMISRTPEVTCVVVDVSHEDPEVKFNWYVDGVEVHNAKTKPREEQYNSTYRVVSVLTVLHQDWLNGKEYKCKVSNKALPAPIEKTISKAKGQPREPQVYTLPPSRDELTKNQVSLTCLVKGFYPSDIAVEWESYGTEWSNYKTTPPVLDSDGSFFLYSKLTVTKSEWQQGYVFSCSVMHEALHNHYTQKSLSLSPELQLEESCAEAQDGELDGLWTT,2.5 µM
9,35.d1.24 (protein) ASTKGPSVFPLAPSSKSTSGGTAALGCLVKDYFPEPVTVSWNSGALTSGVHTFPAVLQSSGLYSLSSVVTVPSSSLGTQTYICNVNHKPSNTKVDKKVEPKSCDKTHTCPPCPAPELLGGPSVFLFPPKPKDTLMISRTPEVTCVVVDVSHEDPEVKFNWYVDGVEVHNAKTKPREEQYNSTYRVVSVLTVLHQDWLNGKEYKCKVSNKALPAPIEKTISKAKGQPREPQVYTLPPSRDELTKNQVSLTCLVKGFYPSDIAVEWESYGTEWSNYKTTPPVLDSDGSFFLYSKLTVSKEEWQQGYVFSCSVMHEALHNHYTQKSLSLSPELQLEESCAEAQDGELDGLWTT,1.1 µM
10,35.d1.21 (protein) ASTKGPSVFPLAPSSKSTSGGTAALGCLVKDYFPEPVTVSWNSGALTSGVHTFPAVLQSSGLYSLSSVVTVPSSSLGTQTYICNVNHKPSNTKVDKKVEPKSCDKTHTCPPCPAPELLGGPSVFLFPPKPKDTLMISRTPEVTCVVVDVSHEDPEVKFNWYVDGVEVHNAKTKPREEQYNSTYRVVSVLTVLHQDWLNGKEYKCKVSNKALPAPIEKTISKAKGQPREPQVYTLPPSRDELTKNQVSLTCLVKGFYPSDIAVEWESYGTEWVNYKTTPPVLDSDGSFFLYSKLTVSKSEWQQGYVFSCSVMHEALHNHYTQKSLSLSPELQLEESCAEAQDGELDGLWTT,14.1 µM
11,35.d1.7 (protein) ASTKGPSVFPLAPSSKSTSGGTAALGCLVKDYFPEPVTVSWNSGALTSGVHTFPAVLQSSGLYSLSSVVTVPSSSLGTQTYICNVNHKPSNTKVDKKVEPKSCDKTHTCPPCPAPELLGGPSVFLFPPKPKDTLMISRTPEVTCVVVDVSHEDPEVKFNWYVDGVEVHNAKTKPREEQYNSTYRVVSVLTVLHQDWLNGKEYKCKVSNKALPAPIEKTISKAKGQPREPQVYTLPPSRDELTKNQVSLTCLVKGFYPSDIAVEWESYGTEWSSYKTTPPVLDSDGSFFLYSKLTVSKSEWQQGYVFSCSVMHEALHNHYTQKSLSLSPELQLEESCAEAQDGELDGLWTT,3 µM
